Test results from patent US20250304693A1 (HIFIBIO, published 2025).

T1: recombinant human BTLA (human, UniProt Q7Z6A9 31-157, limits assumed)
T1 construct: ELISA antigen; construct not described
T1 sequence (looked up): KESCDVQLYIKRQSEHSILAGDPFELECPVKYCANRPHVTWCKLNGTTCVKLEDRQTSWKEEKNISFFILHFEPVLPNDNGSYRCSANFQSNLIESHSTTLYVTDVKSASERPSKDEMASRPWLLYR

T2: cynomolgus BTLA on cells (cynomolgus, UniProt A0A2K5W7M7 31-289)
T2 construct: whole, on cells; Overexpressed on Expi293 cells; also called cyno BTLA; CynoBTLA
T2 sequence: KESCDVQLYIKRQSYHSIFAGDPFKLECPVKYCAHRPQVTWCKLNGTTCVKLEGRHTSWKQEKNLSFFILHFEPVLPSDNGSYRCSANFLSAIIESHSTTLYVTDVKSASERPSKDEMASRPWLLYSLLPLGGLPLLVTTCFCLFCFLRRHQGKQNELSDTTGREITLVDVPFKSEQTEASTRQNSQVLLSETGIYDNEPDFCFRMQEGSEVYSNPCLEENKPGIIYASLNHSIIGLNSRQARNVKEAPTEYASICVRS


How the values were obtained:
[1] = molecular target: T3, human BTLA (B- and T-lymphocyte attenuator) on cells (human, UniProt Q7Z6A9 31-289); experiment: cell-based or functional assay
[2] = molecular target: T1, recombinant human BTLA; experiment: ELISA on recombinant human BTLA
[3] = molecular target: T3, human BTLA (B- and T-lymphocyte …); experiment: cell-based or functional assay; remark: listed apart in the source
[4] = molecular target: T3, human BTLA (B- and T-lymphocyte …); experiment: FACS on HEK293T.hBTLA cells, AF647 anti-human IgG Fc detection
Description: (§1) In FIGS. 11A and 11B, HEK293 overexpressing human BTLA (FIG. 11A) and Expi293 cells overexpressing cynomolgus BTLA (FIG. 11B) were incubated with different concentrations of selected HFB6-3 humanized variants with cysteine mutations. Anti-BTLA antibodies binding to target cells were quantified with an AF647-conjugated anti-human IgG Fc 2nd antibody by FACS. HFB6-3hz24-hG4P-C109A, HFB6-3hz25-hG4P-C109A, HFB6-3hz24-hG4P-C109S and HFB6-3hz25-hG4P-C109S bound to human BTLA and cyno BTLA with single digit nM and sub-nM EC₅₀, similar as parental HFB6-3 (FIGS. 11A and 11B and Table 13).

[5] = molecular target: T2, cynomolgus BTLA on cells; experiment: FACS on Expi293.cynoBTLA cells, AF647 anti-human IgG Fc detection
Description: as §1

[6] = molecular target: T3, human BTLA (B- and T-lymphocyte …); experiment: FACS competition on HEK293T.hBTLA cells; competitor hrHVEM-His-DL650
Description: In FIG. 12A, recombinant HVEM soluble protein was conjugated with DyLight 650 (DL650) fluorophore. HEK293 cells overexpressing hBTLA (HEK293.BTLA) were preincubated with increasing concentrations of selected HFB6-3 humanized variants with cysteine mutants or parental HFB6-3 at 4° C. for 30 minutes and then with DL650-conjugated HVEM for additional 30 minutes. After washing, soluble HVEM remaining associated with BTLA on HEK293.BTLA cells was measured by FACS.

Row | Reporter EC50 [1] | EC50 [2] | CHO.TCRa.hHVEM/Jurkat.hBTLA.NFAT-luc (EC50 (nM)) [3] | EC50 [4] | EC50 [5] | IC50 [6] | Binder
1 | 36.7 nM | 3.29 nM | – | – | – | – | HFB6-2hz9-hG4P (antibody, V domains shown, Humanized variant of HFB6-2) VH: QVQLVQSGAEVKKPGASVKVSCKASGVNIKDTYMYWVRQAPGQGLEWIGRIDPANGYTRYAQKFQGRATVTADTSTSTVYLELSSLRSEDTAVYYCAVNDGYFEYFDVWGQGTTVTVSS VL: EIVLTQSPGTLSLSPGERATLSCRSSQSLLDSDGKPYLNWLQQKPGQAPRRLIYLVSKLDSGIPDRFSGSGSGTDFTLTISRLEPEDLAVYYCWQDTHFPRTFGQGTKLEIK
2 | 10.8 nM | 2.39 nM | – | – | – | – | HFB6-2hz16-hG4P (antibody, V domains shown, Humanized variant of HFB6-2) VH: QVQLVQSGAEVKKPGASVKVSCKASGVNIKDTYMYWVRQAPGQGLEWIGRIDPANGYTRYAQKFQGRATVTADTSTSTVYLELSSLRSEDTAVYYCAVNDGYFEYFDVWGQGTTVTVSS VL: DIVMTQSPDSLAVSLGERATINCKSSQSLLDSDGKPYLNWLQQKPGQSPKRLIYLVSKLDSGVPDRFSGSGSGTDFTLTISSVQAEDVAVYYCWQDTHFPRTFGQGTKLEIK
3 | 43.2 nM | 5.05 nM | – | – | – | – | HFB6-2hz12-hG4P (antibody, V domains shown, Humanized variant of HFB6-2) VH: EVQLLESGGGLVQPGGSLRLSCAASGVNIKDTYMYWVRQAPGKGLEWIGRIDPANGYTRYADSVKGRFTISADNSKNTLYLQMNSLRAEDTAVYYCAVNDGYFEYFDVWGQGTTVTVSS VL: EIVLTQSPGTLSLSPGERATLSCRSSQSLLDSDGKPYLNWLQQKPGQAPRRLIYLVSKLDSGIPDRFSGSGSGTDFTLTISRLEPEDLAVYYCWQDTHFPRTFGQGTKLEIK
4 | 19.6 nM | 2.74 nM | – | – | – | – | HFB6-2hz15-hG4P (antibody, V domains shown, Humanized variant of HFB6-2) VH: QVQLVQSGAEVKKPGASVKVSCKASGVNIKDTYMYWVRQAPGQGLEWIGRIDPANGYTRYAQKFQGRVTMTADTSTSTVYMELSSLRSEDTAVYYCAVNDGYFEYFDVWGQGTTVTVSS VL: DIVMTQSPDSLAVSLGERATINCKSSQSLLDSDGKPYLNWLQQKPGQSPKRLIYLVSKLDSGVPDRFSGSGSGTDFTLTISSVQAEDVAVYYCWQDTHFPRTFGQGTKLEIK
5 | 10.8 nM | 2.24 nM | – | – | – | – | HFB6-2hz18-hG4P (antibody, V domains shown, Humanized variant of HFB6-2) VH: QVQLVQSGAEVKKPGSSVKVSCKASGVNIKDTYMYWVRQAPGQGLEWIGRIDPANGYARYAQKFQGRATVTADKSTSTAYLELSSLRSEDTAVYYCAVNDGYFEYFDVWGQGTTVTVSS VL: DIVMTQSPDSLAVSLGERATINCKSSQSLLDSDGKPYLNWLQQKPGQSPKRLIYLVSKLDSGVPDRFSGSGSGTDFTLTISSVQAEDVAVYYCWQDTHFPRTFGQGTKLEIK
6 | 66.8 nM | 3.96 nM | – | – | – | – | HFB6-2hz8-hG4P (antibody, V domains shown, Humanized variant of HFB6-2) VH: QVQLVQSGAEVKKPGASVKVSCKASGVNIKDTYMYWVRQAPGQGLEWIGRIDPANGYTRYAQKFQGRVTMTADTSTSTVYMELSSLRSEDTAVYYCAVNDGYFEYFDVWGQGTTVTVSS VL: EIVLTQSPGTLSLSPGERATLSCRSSQSLLDSDGKPYLNWLQQKPGQAPRRLIYLVSKLDSGIPDRFSGSGSGTDFTLTISRLEPEDLAVYYCWQDTHFPRTFGQGTKLEIK
7 | 19.4 nM | 3.66 nM | – | – | – | – | HFB6-2hz11-hG4P (antibody, V domains shown, Humanized variant of HFB6-2) VH: QVQLVQSGAEVKKPGSSVKVSCKASGVNIKDTYMYWVRQAPGQGLEWIGRIDPANGYARYAQKFQGRATVTADKSTSTAYLELSSLRSEDTAVYYCAVNDGYFEYFDVWGQGTTVTVSS VL: EIVLTQSPGTLSLSPGERATLSCRSSQSLLDSDGKPYLNWLQQKPGQAPRRLIYLVSKLDSGIPDRFSGSGSGTDFTLTISRLEPEDLAVYYCWQDTHFPRTFGQGTKLEIK
8 | 47 nM | 3.21 nM | – | – | – | – | HFB6-2hz0-hG4P (antibody, V domains shown) VH: QVQLVQSGAEVKKPGSSVKVSCKASGVNIKDTYMYWVRQAPGQGLEWIGRIDPANGYARYAQKFQGRATITADESTSTAYLELSSLRSEDTAVYYCAVNDGYFEYFDVWGQGTTVTVSS VL: EIVLTQSPGTLSLSPGERATLSCRSSQSLLDSDGKPYLNWLQQKPGQAPRRLIYLVSKLDSGIPDRFSGSGSGTDFTLTISRLEPEDLAVYYCWQDTHFPRTFGQGTKLEIK
9 | 18.2 nM | 2.4 nM | – | – | – | – | HFB6-2hz17-hG4P (antibody, V domains shown, Humanized variant of HFB6-2) VH: QVQLVQSGAEVKKPGSSVKVSCKASGVNIKDTYMYWVRQAPGQGLEWIGRIDPANGYARYAQKFQGRATITADESTSTAYLELSSLRSEDTAVYYCAVNDGYFEYFDVWGQGTTVTVSS VL: DIVMTQSPDSLAVSLGERATINCKSSQSLLDSDGKPYLNWLQQKPGQSPKRLIYLVSKLDSGVPDRFSGSGSGTDFTLTISSVQAEDVAVYYCWQDTHFPRTFGQGTKLEIK
10 | 22.1 nM | 2.55 nM | – | – | – | – | HFB6-2hz19-hG4P (antibody, V domains shown, Humanized variant of HFB6-2) VH: EVQLLESGGGLVQPGGSLRLSCAASGVNIKDTYMYWVRQAPGKGLEWIGRIDPANGYTRYADSVKGRFTISADNSKNTLYLQMNSLRAEDTAVYYCAVNDGYFEYFDVWGQGTTVTVSS VL: DIVMTQSPDSLAVSLGERATINCKSSQSLLDSDGKPYLNWLQQKPGQSPKRLIYLVSKLDSGVPDRFSGSGSGTDFTLTISSVQAEDVAVYYCWQDTHFPRTFGQGTKLEIK
11 | 9.77 nM | 2.51 nM | – | – | – | – | HFB6-2hz20-hG4P (antibody, V domains shown, Humanized variant of HFB6-2) VH: QVQLQESGPGLVKPSGTLSLTCAASGVNIKDTYMYWVRQPPGKGLEWIGRIDPANGYTRYNPSFKSRATVSADKSKNQASLKLSSLTAADTAVYYCAVNDGYFEYFDVWGQGTTVTVSS VL: DIVMTQSPDSLAVSLGERATINCKSSQSLLDSDGKPYLNWLQQKPGQSPKRLIYLVSKLDSGVPDRFSGSGSGTDFTLTISSVQAEDVAVYYCWQDTHFPRTFGQGTKLEIK
12 | – | – | 13 nM | 3.27 nM | 6.89 nM | 2.64 nM | HFB6-3hz24-hG4P-C109A (antibody, V domains shown, Humanized variant of HFB6-3) VH: QVQLQESGPGLVKPSGTLSLTCADSGFNIKDTYIHWVRQPPGKGLEWIGRIDPANGFTRYNPSLKSRVTISSDKSKNQASLKLSSVTAADTAVYYCAREDGYPYYTLDAWGQGTTVTVSS VL: DIVMTQSPDSLALSLGERATINCKSSQSLLDVDGKTYLNWFQQKPGQPPKRLIYLVSKLDSGVPDRFSGSGSGTDFTLTISSVQAEDVAVYYCWQGTHFPRTFGQGTKLEIK
13 | – | – | 16.6 nM | 3.6 nM | 7.83 nM | 3.22 nM | HFB6-3hz24-hG4P-C109S (antibody, V domains shown, Humanized variant of HFB6-3) VH: QVQLQESGPGLVKPSGTLSLTCADSGFNIKDTYIHWVRQPPGKGLEWIGRIDPANGFTRYNPSLKSRVTISSDKSKNQASLKLSSVTAADTAVYYCAREDGYPYYTLDSWGQGTTVTVSS VL: DIVMTQSPDSLALSLGERATINCKSSQSLLDVDGKTYLNWFQQKPGQPPKRLIYLVSKLDSGVPDRFSGSGSGTDFTLTISSVQAEDVAVYYCWQGTHFPRTFGQGTKLEIK
14 | – | – | 10.2 nM | 3.2 nM | 9.69 nM | 2.61 nM | HFB6-3hz25-hG4P-C109A (antibody, V domains shown, Humanized variant of HFB6-3) VH: QVQLQESGPGLVKPSGTLSLTCADSGFSISDTYIHWVRQPPGKGLEWIGRIDPANGFTRYNPSLKSRVTISSDKSKNQASLKLSSVTAADTAVYYCAREDGYPYYTLDAWGQGTTVTVSS VL: DIVMTQSPDSLALSLGERATINCKSSQSLLDVDGKTYLNWFQQKPGQPPKRLIYLVSKLDSGVPDRFSGSGSGTDFTLTISSVQAEDVAVYYCWQGTHFPRTFGQGTKLEIK
15 | – | – | – | 3.84 nM | 7.38 nM | 2.91 nM | HFB6-3hz20-hG4P (antibody, V domains shown, Humanized variant of HFB6-3) VH: QVQLQESGPGLVKPSGTLSLTCADSGFNIKDTYIHWVRQPPGKGLEWIGRIDPANGFTRYNPSFKSRATISSDKSKNQASLKLSSVTAADTAVYYCAREDGYPYYTLDCWGQGTTVTVSS VL: DIVMTQSPDSLALSLGERATINCKSSQSLLDVDGKTYLNWFQQKPGQPPKRLIYLVSKLDSGVPDRFSGSGSGTDFTLTISSVQAEDVAVYYCWQGTHFPRTFGQGTKLEIK
